Target: the molecule itself
Test: native gel or EMSA; blue native PAGE of purified BmrA wt and Ala (Val) variants in DDM micelles; 4 to 16% Bis-Tris gel; dimer to monomers

Protein | binding result
BmrA D572A (natural protein, Bacillus subtilis strain 168, UniProt O06967 1-589, looked up, BmrA of Bacillus subtilis strain 168, full length, D572 replaced by Ala; source: E. coli, purified in presence of detergent (DDM)) MPTKKQKSKSKLKPFFALVRRTNPSYGKLAFALALSVVTTLVSLLIPLLTKQLVDGFSMSNLSGTQIGLIALVFFVQAGLSAYATYALNYNGQKIISGLRELLWKKLIKLPVSYFDTNASGETVSRVTNDTMVVKELITTHISGFITGIISVIGSLTILFIMNWKLTLLVLVVVPLAALILVPIGRKMFSISRETQDETARFTGLLNQILPEIRLVKASNAEDVEYGRGKMGISSLFKLGVREAKVQSLVGPLISLVLMAALVAVIGYGGMQVSSGELTAGALVAFILYLFQIIMPMGQITTFFTQLQKSIGATERMIEILAEEEEDTVTGKQIENAHLPIQLDRVSFGYKPDQLILKEVSAVIEAGKVTAIVGPSGGGKTTLFKLLERFYSPTAGTIRLGDEPVDTYSLESWREHIGYVSQESPLMSGTIRENICYGLERDVTDAEIEKAAEMAYALNFIKELPNQFDTEVGERGIMLSGGQRQRIAIARALLRNPSILMLDEATSSLDSQSEKSVQQALEVLMEGRTTIVIAHRLSTVVDADQLLFVEKGEITGRGTHHELMASHGLYRAFAEQQLKMNADLENKAG | binds
BmrA F573A (natural protein, Bacillus subtilis strain 168, UniProt O06967 1-589, looked up, BmrA of Bacillus subtilis strain 168, full length, F573 replaced by Ala; source: E. coli, purified in presence of detergent (DDM)) MPTKKQKSKSKLKPFFALVRRTNPSYGKLAFALALSVVTTLVSLLIPLLTKQLVDGFSMSNLSGTQIGLIALVFFVQAGLSAYATYALNYNGQKIISGLRELLWKKLIKLPVSYFDTNASGETVSRVTNDTMVVKELITTHISGFITGIISVIGSLTILFIMNWKLTLLVLVVVPLAALILVPIGRKMFSISRETQDETARFTGLLNQILPEIRLVKASNAEDVEYGRGKMGISSLFKLGVREAKVQSLVGPLISLVLMAALVAVIGYGGMQVSSGELTAGALVAFILYLFQIIMPMGQITTFFTQLQKSIGATERMIEILAEEEEDTVTGKQIENAHLPIQLDRVSFGYKPDQLILKEVSAVIEAGKVTAIVGPSGGGKTTLFKLLERFYSPTAGTIRLGDEPVDTYSLESWREHIGYVSQESPLMSGTIRENICYGLERDVTDAEIEKAAEMAYALNFIKELPNQFDTEVGERGIMLSGGQRQRIAIARALLRNPSILMLDEATSSLDSQSEKSVQQALEVLMEGRTTIVIAHRLSTVVDADQLLFVEKGEITGRGTHHELMASHGLYRDAAEQQLKMNADLENKAG | binds
BmrA A574V (natural protein, Bacillus subtilis strain 168, UniProt O06967 1-589, looked up, BmrA of Bacillus subtilis strain 168, full length, A574 replaced by Val; source: E. coli, purified in presence of detergent (DDM)) MPTKKQKSKSKLKPFFALVRRTNPSYGKLAFALALSVVTTLVSLLIPLLTKQLVDGFSMSNLSGTQIGLIALVFFVQAGLSAYATYALNYNGQKIISGLRELLWKKLIKLPVSYFDTNASGETVSRVTNDTMVVKELITTHISGFITGIISVIGSLTILFIMNWKLTLLVLVVVPLAALILVPIGRKMFSISRETQDETARFTGLLNQILPEIRLVKASNAEDVEYGRGKMGISSLFKLGVREAKVQSLVGPLISLVLMAALVAVIGYGGMQVSSGELTAGALVAFILYLFQIIMPMGQITTFFTQLQKSIGATERMIEILAEEEEDTVTGKQIENAHLPIQLDRVSFGYKPDQLILKEVSAVIEAGKVTAIVGPSGGGKTTLFKLLERFYSPTAGTIRLGDEPVDTYSLESWREHIGYVSQESPLMSGTIRENICYGLERDVTDAEIEKAAEMAYALNFIKELPNQFDTEVGERGIMLSGGQRQRIAIARALLRNPSILMLDEATSSLDSQSEKSVQQALEVLMEGRTTIVIAHRLSTVVDADQLLFVEKGEITGRGTHHELMASHGLYRDFVEQQLKMNADLENKAG | binds
BmrA R571A (natural protein, Bacillus subtilis strain 168, UniProt O06967 1-589, looked up, BmrA of Bacillus subtilis strain 168, full length, R571 replaced by Ala; source: E. coli, purified in presence of detergent (DDM)) MPTKKQKSKSKLKPFFALVRRTNPSYGKLAFALALSVVTTLVSLLIPLLTKQLVDGFSMSNLSGTQIGLIALVFFVQAGLSAYATYALNYNGQKIISGLRELLWKKLIKLPVSYFDTNASGETVSRVTNDTMVVKELITTHISGFITGIISVIGSLTILFIMNWKLTLLVLVVVPLAALILVPIGRKMFSISRETQDETARFTGLLNQILPEIRLVKASNAEDVEYGRGKMGISSLFKLGVREAKVQSLVGPLISLVLMAALVAVIGYGGMQVSSGELTAGALVAFILYLFQIIMPMGQITTFFTQLQKSIGATERMIEILAEEEEDTVTGKQIENAHLPIQLDRVSFGYKPDQLILKEVSAVIEAGKVTAIVGPSGGGKTTLFKLLERFYSPTAGTIRLGDEPVDTYSLESWREHIGYVSQESPLMSGTIRENICYGLERDVTDAEIEKAAEMAYALNFIKELPNQFDTEVGERGIMLSGGQRQRIAIARALLRNPSILMLDEATSSLDSQSEKSVQQALEVLMEGRTTIVIAHRLSTVVDADQLLFVEKGEITGRGTHHELMASHGLYADFAEQQLKMNADLENKAG | binds
BmrA Q577A (natural protein, Bacillus subtilis strain 168, UniProt O06967 1-589, looked up, BmrA of Bacillus subtilis strain 168, full length, Q577 replaced by Ala; source: E. coli, purified in presence of detergent (DDM)) MPTKKQKSKSKLKPFFALVRRTNPSYGKLAFALALSVVTTLVSLLIPLLTKQLVDGFSMSNLSGTQIGLIALVFFVQAGLSAYATYALNYNGQKIISGLRELLWKKLIKLPVSYFDTNASGETVSRVTNDTMVVKELITTHISGFITGIISVIGSLTILFIMNWKLTLLVLVVVPLAALILVPIGRKMFSISRETQDETARFTGLLNQILPEIRLVKASNAEDVEYGRGKMGISSLFKLGVREAKVQSLVGPLISLVLMAALVAVIGYGGMQVSSGELTAGALVAFILYLFQIIMPMGQITTFFTQLQKSIGATERMIEILAEEEEDTVTGKQIENAHLPIQLDRVSFGYKPDQLILKEVSAVIEAGKVTAIVGPSGGGKTTLFKLLERFYSPTAGTIRLGDEPVDTYSLESWREHIGYVSQESPLMSGTIRENICYGLERDVTDAEIEKAAEMAYALNFIKELPNQFDTEVGERGIMLSGGQRQRIAIARALLRNPSILMLDEATSSLDSQSEKSVQQALEVLMEGRTTIVIAHRLSTVVDADQLLFVEKGEITGRGTHHELMASHGLYRDFAEQALKMNADLENKAG | binds
BmrA L569A (natural protein, Bacillus subtilis strain 168, UniProt O06967 1-589, looked up, BmrA of Bacillus subtilis strain 168, full length, L569 replaced by Ala; source: E. coli, purified in presence of detergent (DDM)) MPTKKQKSKSKLKPFFALVRRTNPSYGKLAFALALSVVTTLVSLLIPLLTKQLVDGFSMSNLSGTQIGLIALVFFVQAGLSAYATYALNYNGQKIISGLRELLWKKLIKLPVSYFDTNASGETVSRVTNDTMVVKELITTHISGFITGIISVIGSLTILFIMNWKLTLLVLVVVPLAALILVPIGRKMFSISRETQDETARFTGLLNQILPEIRLVKASNAEDVEYGRGKMGISSLFKLGVREAKVQSLVGPLISLVLMAALVAVIGYGGMQVSSGELTAGALVAFILYLFQIIMPMGQITTFFTQLQKSIGATERMIEILAEEEEDTVTGKQIENAHLPIQLDRVSFGYKPDQLILKEVSAVIEAGKVTAIVGPSGGGKTTLFKLLERFYSPTAGTIRLGDEPVDTYSLESWREHIGYVSQESPLMSGTIRENICYGLERDVTDAEIEKAAEMAYALNFIKELPNQFDTEVGERGIMLSGGQRQRIAIARALLRNPSILMLDEATSSLDSQSEKSVQQALEVLMEGRTTIVIAHRLSTVVDADQLLFVEKGEITGRGTHHELMASHGAYRDFAEQQLKMNADLENKAG | binds
BmrA Q576A (natural protein, Bacillus subtilis strain 168, UniProt O06967 1-589, looked up, BmrA of Bacillus subtilis strain 168, full length, Q576 replaced by Ala; source: E. coli, purified in presence of detergent (DDM)) MPTKKQKSKSKLKPFFALVRRTNPSYGKLAFALALSVVTTLVSLLIPLLTKQLVDGFSMSNLSGTQIGLIALVFFVQAGLSAYATYALNYNGQKIISGLRELLWKKLIKLPVSYFDTNASGETVSRVTNDTMVVKELITTHISGFITGIISVIGSLTILFIMNWKLTLLVLVVVPLAALILVPIGRKMFSISRETQDETARFTGLLNQILPEIRLVKASNAEDVEYGRGKMGISSLFKLGVREAKVQSLVGPLISLVLMAALVAVIGYGGMQVSSGELTAGALVAFILYLFQIIMPMGQITTFFTQLQKSIGATERMIEILAEEEEDTVTGKQIENAHLPIQLDRVSFGYKPDQLILKEVSAVIEAGKVTAIVGPSGGGKTTLFKLLERFYSPTAGTIRLGDEPVDTYSLESWREHIGYVSQESPLMSGTIRENICYGLERDVTDAEIEKAAEMAYALNFIKELPNQFDTEVGERGIMLSGGQRQRIAIARALLRNPSILMLDEATSSLDSQSEKSVQQALEVLMEGRTTIVIAHRLSTVVDADQLLFVEKGEITGRGTHHELMASHGLYRDFAEAQLKMNADLENKAG | binds
BmrA L578A (natural protein, Bacillus subtilis strain 168, UniProt O06967 1-589, looked up, BmrA of Bacillus subtilis strain 168, full length, L578 replaced by Ala; source: E. coli, purified in presence of detergent (DDM)) MPTKKQKSKSKLKPFFALVRRTNPSYGKLAFALALSVVTTLVSLLIPLLTKQLVDGFSMSNLSGTQIGLIALVFFVQAGLSAYATYALNYNGQKIISGLRELLWKKLIKLPVSYFDTNASGETVSRVTNDTMVVKELITTHISGFITGIISVIGSLTILFIMNWKLTLLVLVVVPLAALILVPIGRKMFSISRETQDETARFTGLLNQILPEIRLVKASNAEDVEYGRGKMGISSLFKLGVREAKVQSLVGPLISLVLMAALVAVIGYGGMQVSSGELTAGALVAFILYLFQIIMPMGQITTFFTQLQKSIGATERMIEILAEEEEDTVTGKQIENAHLPIQLDRVSFGYKPDQLILKEVSAVIEAGKVTAIVGPSGGGKTTLFKLLERFYSPTAGTIRLGDEPVDTYSLESWREHIGYVSQESPLMSGTIRENICYGLERDVTDAEIEKAAEMAYALNFIKELPNQFDTEVGERGIMLSGGQRQRIAIARALLRNPSILMLDEATSSLDSQSEKSVQQALEVLMEGRTTIVIAHRLSTVVDADQLLFVEKGEITGRGTHHELMASHGLYRDFAEQQAKMNADLENKAG | binds
BmrA E575A (natural protein, Bacillus subtilis strain 168, UniProt O06967 1-589, looked up, BmrA of Bacillus subtilis strain 168, full length, E575 replaced by Ala; source: E. coli, purified in presence of detergent (DDM)) MPTKKQKSKSKLKPFFALVRRTNPSYGKLAFALALSVVTTLVSLLIPLLTKQLVDGFSMSNLSGTQIGLIALVFFVQAGLSAYATYALNYNGQKIISGLRELLWKKLIKLPVSYFDTNASGETVSRVTNDTMVVKELITTHISGFITGIISVIGSLTILFIMNWKLTLLVLVVVPLAALILVPIGRKMFSISRETQDETARFTGLLNQILPEIRLVKASNAEDVEYGRGKMGISSLFKLGVREAKVQSLVGPLISLVLMAALVAVIGYGGMQVSSGELTAGALVAFILYLFQIIMPMGQITTFFTQLQKSIGATERMIEILAEEEEDTVTGKQIENAHLPIQLDRVSFGYKPDQLILKEVSAVIEAGKVTAIVGPSGGGKTTLFKLLERFYSPTAGTIRLGDEPVDTYSLESWREHIGYVSQESPLMSGTIRENICYGLERDVTDAEIEKAAEMAYALNFIKELPNQFDTEVGERGIMLSGGQRQRIAIARALLRNPSILMLDEATSSLDSQSEKSVQQALEVLMEGRTTIVIAHRLSTVVDADQLLFVEKGEITGRGTHHELMASHGLYRDFAAQQLKMNADLENKAG | binds
